Here are results for six molecules from patent US20180282690A1, “METHOD AND CULTURE MEDIUM FOR EX VIVO CULTURING OF EPIDERMIS-DERIVED STEM CELLS” (Max-Planck-Gesellschaft zur Förderung der Wissenchaften e.V., priority 2015, published 2018).

The subject of the assay is CD34^+α6^+ HFSCs. In words: 3D-ECM culture of mouse keratinocytes, CD34+α6+ HFSCs quantified by flow cytometry. It counts as cell-based. The following applies: for percentage of CD34+α6+ HFSCs: vs untreated 3C; for normalized CD34+α6+ content of cultures: day 14 Matrigel; for growth/expansion of CD34+α6+ HFSCs when FGF-2 or VEGF-164 is replaced: in the 3C, YF and/or YV media, compared with FGF-2 / VEGF-164. The method, then: Keratinocytes were isolated from back skin of mice by incubating skin pieces in 0.8% Trypsin (Gibco) for 50 min at 37° C. After separating the epidermis from the underlying dermis, cells were homogenized, filtered through 70 μm and 45 μm cell strainers (BD Biosciences) and pelleted at 900 rpm for 3 min. For 2D culture of epidermis-derived cells, tissue culture petri dished were coated with a mixture of collagen I (30 μg/ml)+fibronectin (10 μg/ml; both from Millipore) in MEM for 1 h at 37° C. prior to plating of cells. Epidermis-derived cells were suspended in KGM or in FAD medium, and seeded on the coated plastic dishes. Medium was exchanged the next day after initial seeding and thereafter every second day. […] For 3D culture of HFSCs, 8×10^4 cells were resuspended in 40 μl ice-cold 1:1 KGM:Matrigel mixture that was dispensed as a droplet in 24-well cell culture dishes. The suspension was allowed to solidify for 15 min after which it was overlaid with 500 μl of stem cell media. The following media compositions were used: KGM basal medium, medium Y (KGM, 5 μM Y27632, 10 ng/ml human recombinant EGF), medium Y-E (KGM, 5 μM Y27632), medium YV (KGM, 5 μM Y27632, 10 ng/ml human recombinant EGF, 20 ng/ml mouse recombinant VEGF), medium YF (KGM, 5 μM Y27632, 10 ng/ml human recombinant EGF, 20 ng/ml human recombinant FGF-2), 3C (KGM, 5 μM Y27632, 10 ng/ml human recombinant EGF, 20 ng/ml mouse recombinant VEGF, 20 ng/ml human recombinant FGF-2), and 3C-E (KGM, 5 μM Y27632, 20 ng/ml mouse recombinant VEGF, 20 ng/ml human recombinant FGF-2).
For cell passaging and flow cytometry cultured hair follicle stem cells were extracted from Matrigel by mechanical homogenization and incubation in 0.5% Trypsin (Gibco), 0.5 mM EDTA, PBS or Accutase (Gibco) for 10 min at 37° C.
Single cell suspensions prepared from murine back skin (described above) or from cultured cells were rinsed once with KGM and stained with fluorescently labeled antibodies for 30 min on ice. After two washes with FACS Buffer (2% FCS, 2 mM EDTA, PBS) cells were measured in a BD FACS Canto II and data was analyzed using FlowJo software version 10. For purification of cell populations (cell sorting) a BD FACS Aria II or a BD FACS Aria Fusion were used. Cells were sorted in KGM medium at 4′C. Expression of cell surface markers was analyzed on live cells after exclusion of cell doublets and dead cells, respectively.

[1] abbreviates: cyclopamine 10 μM for 5 days added to 3C cultures.
Setting [2] is: 3C conditions (Y27632+EGF+FGF+VEGF), vs VEGF-164 or FGF-2 set to 1.
Setting [3] is: YF conditions (Y27632+EGF+FGF), vs FGF-2 set to 1.

For `COc1cc(-c2cc(-c3cccc(O)c3)cnc2N)cc(OC)c1OC` [K02288, 3-[6-amino-5-(3,4,5-trimethoxyphenyl)pyridin-3-yl]phenol, reference compound], the “percentage of CD34+α6+ HFSCs” value (3C conditions 14 days with K02288 10 nM) is “decrease”.
For `C[C@@H](N)[C@H]1CC[C@H](C(=O)Nc2ccncc2)CC1.Cl.Cl.O` [Y27632, (R)-(+)-trans-4-(1-aminoethyl)-N-(4-Pyridyl)cyclohexanecarboxamide dihydrochloride monohydrate, reference compound], for the setting “3C conditions, from the beginning of the culturing time”, the “requirement of ROCK inhibitor for HFSC growth and expansion” value is “essential”.
On to `CC1=C2C[C@H]3[C@@H](CC=C4C[C@@H](O)CC[C@@]43C)[C@@H]2CC[C@]12O[C@@H]1C[C@H](C)CN[C@H]1[C@H]2C` [cyclopamine, (2′R,3S,3′R,3′aS,6'S,6aS,6bS,7′aR,11aS,11bR)-1,2,3,3′a,4,4′,5′,6,6′,6a,6b,7,7′,7′a,8,11,11a,11b-Octadecahydro-3′,6′,10,11b-tetramethylspiro[9H-benzo[a]fluorene-9,2′(3′H)-furo[3,2-b]pyridin]-3-ol, reference compound], for which the “proportion of HFSCs in the cultured cell mixture” value (3C conditions 9 days, then cyclopamine 10 μM for 5 days, flow cytometry day 14) was “up to 93.6%”. Besides, under setting [1], the total cell numbers entry is “decrease” and the “percentage of CD34+α6+ HFSCs” value is “elevated”.

B1: FGF-10: human recombinant FGF-10 (protein, UniProt O15520 38-208, looked up)
Fibroblast growth factor 10: QALGQDMVSPEATNSSSSSFSSPSSAGRHVRSYNHLQGDVRWRKLFSFTKYFLKIEKNGKVSGTKKENCPYSILEITSVEIGVVAVKAINSNYYLAMNKKGKLYGSKEFNNDCKLKERIEENGYNTYASFNWQHNGRQMYVALNGKGAPRRGQKTRRKNTSAHFLPMVVHS
In the case of B1, the “growth/expansion of CD34+α6+ HFSCs when FGF-2 or VEGF-164 is replaced” value (shortened to “growth/expansion of CD34+α6+ HFSCs”) is listed as “Comparable”. Also, the “normalized CD34+α6+ content of cultures” value under setting [2] is “perform equally well”. Besides, the “normalized CD34+α6+ content of cultures” value under setting [3] is listed as “perform equally well”.

B2: FGF-7: human recombinant FGF-7 (protein, UniProt P21781 32-194, looked up)
Fibroblast growth factor 7: CNDMTPEQMATNVNCSSPERHTRSYDYMEGGDIRVRRLFCRTQWYLRIDKRGKVKGTQEMKNNYNIMEIRTVAVGIVAIKGVESEFYLAMNKEGKLYAKKECNEDCNFKELILENHYNTYASAKWTHNGGEMFVALNQKGIPVRGKKTKKEQKTAHFLPMAIT
As for B2, the “growth/expansion of CD34+α6+ HFSCs” value is reported as “Comparable”. Also, the “normalized CD34+α6+ content of cultures” value under setting [2] is on record as “perform equally well”. The “normalized CD34+α6+ content of cultures” value under setting [3] is listed as “perform equally well”.

B3: FGF-18: human recombinant FGF-18 (protein, UniProt O76093 28-207, looked up)
Fibroblast growth factor 18: EENVDFRIHVENQTRARDDVSRKQLRLYQLYSRTSGKHIQVLGRRISARGEDGDKYAQLLVETDTFGSQVRIKGKETEFYLCMNRKGKLVGKPDGTSKECVFIEKVLENNYTALMSAKYSGWYVGFTKKGRPRKGPKTRENQQDVHFMKRYPKGQPELQKPFKYTTVTKRSRRIRPTHPA
With B3, the “growth/expansion of CD34+α6+ HFSCs” value is “Comparable”.
